# Test results reported in patent US20110318347A1.
# Experiments:
# human CXCR4 (human) [1] = assay: competition vs [125I]-238D2 (3 nM), membranes of HEK293T cells expressing CXCR4
# human CXCR4 (human) [2] = biological target: human CXCR4 (human)
# human CXCR4 (human) [3] = assay: competition with [125I]-238D2 on HEK293T-CXCR4 membranes
# human CXCR4 (human) [4] = assay: cell-based or functional assay
# human CXCR4 (human) [5] = assay: periplasmic fraction (1:10), displacement of [125I]-CXCL12, HEK293T-CXCR4 membranes; - = 0-29%, + = 30-69%, ++ = 70-100%
# human CXCR4 (human) [6] = assay: competition with [125I]-CXCL12 on HEK293T-CXCR4 membranes
# human CXCR4 (human) [7] = assay: competition vs [125I]-238D4 (3 nM), membranes of HEK293T cells expressing CXCR4
# human CXCR4 (human) [8] = assay: competition vs [125I]-CXCL12 (40 pM), membranes of HEK293T cells expressing CXCR4
# human CXCR4 (human) [9] = assay: competition with [125I]-238D4 on HEK293T-CXCR4 membranes
# Sequence of Nanobody 238D2 (VHH) (VHH): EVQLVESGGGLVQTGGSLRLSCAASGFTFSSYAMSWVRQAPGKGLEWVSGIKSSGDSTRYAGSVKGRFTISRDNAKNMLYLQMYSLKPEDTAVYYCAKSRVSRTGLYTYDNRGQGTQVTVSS
substance,measurement,setting,value
Nanobody 238D2 (VHH),Displacem. (%),human CXCR4 (human) [1],97%
same,pKi,human CXCR4 (human) [1],8.41
same,"IC50 (read off the curve), migration of Jurkat cells towards 0.3 nM CXCL12",human CXCR4 (human) [2],8 nM
same,IC50 (read off the curve),human CXCR4 (human) [3],6 nM
same,"Anti-HIV-1 activity (in nM), MT-4/HE",human CXCR4 (human) [4],26.7 nM
same,"Anti-HIV-1 activity (in nM), MT-4/NL4.3",human CXCR4 (human) [4],30.7 nM
same,"Anti-HIV-1 activity (in nM), PBMC/HE",human CXCR4 (human) [4],44.7 nM
same,"Anti-HIV-1 activity (in nM), PBMC/NL4.3",human CXCR4 (human) [4],30.9 nM
same,"Anti-HIV-1 activity (in nM), U87.CD4.CXCR4/NL4.3",human CXCR4 (human) [4],44.7 nM
same,"CRE activation, HEK293T-CXCR4-CREbgal/0.01-100 nM CXCL12, Imax (%)",human CXCR4 (human) [4],104%
same,"Chemotaxis, Jurkat/0.3 nM CXCL12, Imax (%)",human CXCR4 (human) [4],106%
same,"IC50, HIV-1 NL4.3, MT-4 cells, exp. 1",human CXCR4 (human) [4],0.701 µg/mL
same,"IC50, HIV-1 NL4.3, PBMC donor 1",human CXCR4 (human) [4],0.468 µg/mL
same,"IC50, HIV-1 NL4.3, PBMC donor 2",human CXCR4 (human) [4],0.307 µg/mL
same,"IC50, HIV-1 UG270, PBMC donor 1",human CXCR4 (human) [4],0.492 µg/mL
same,"IC50, HIV-1 UG270, PBMC donor 2",human CXCR4 (human) [4],0.447 µg/mL
same,"IC90, HIV-1 NL4.3, MT-4 cells, exp. 1",human CXCR4 (human) [4],0.849 µg/mL
same,"IC90, HIV-1 NL4.3, PBMC donor 1",human CXCR4 (human) [4],> 1 µg/mL
same,"IC90, HIV-1 NL4.3, PBMC donor 2",human CXCR4 (human) [4],> 1 µg/mL
same,"IC90, HIV-1 UG270, PBMC donor 1",human CXCR4 (human) [4],> 1 µg/mL
same,"IC90, HIV-1 UG270, PBMC donor 2",human CXCR4 (human) [4],0.851 µg/mL
same,"IP accumulation, HEK293T-CXCR4-Gαqi5/30 nM CXCL12, Imax (%)",human CXCR4 (human) [4],86%
same,"nM IC50, HIV-1 NL4.3, PBMC donor 1",human CXCR4 (human) [4],31.2 nM
same,"nM IC50, HIV-1 NL4.3, PBMC donor 2",human CXCR4 (human) [4],20.5 nM
same,"nM IC50, HIV-1 UG270, PBMC donor 1",human CXCR4 (human) [4],32.8 nM
same,"nM IC50, HIV-1 UG270, PBMC donor 2",human CXCR4 (human) [4],29.8 nM
same,percent inhibition of specific [125I]-CXCL12 binding,human CXCR4 (human) [5],70 to 100%
same,IC50 (read off the curve),human CXCR4 (human) [6],20 nM
same,pKi,human CXCR4 (human) [7],8.23
same,Displacem. (%),human CXCR4 (human) [8],93%
same,pKi,human CXCR4 (human) [8],8.01
same,IC50 (read off the curve),human CXCR4 (human) [9],4 nM
monoclonal antibody 12G5,Displacem. (%),human CXCR4 (human) [1],89%
same,pKi,human CXCR4 (human) [1],9.65
same,Displacem. (%),human CXCR4 (human) [7],90%
same,pKi,human CXCR4 (human) [7],9.31
same,Displacem. (%),human CXCR4 (human) [8],54%
same,pKi,human CXCR4 (human) [8],9.19
